Values quoted from earlier work in article PMC7088015.
Like-named read-outs stand apart in the source and are kept apart here.

Key:
Conditions in all cases: free dipeptide in solution (not further stated)
[1] = tested on: Nterm
[2] = tested on: Cterm
[3] = tested on: Nterm; assay: not stated
[4] = tested on: Cterm (position 1, -----H-----); assay: not stated
[5] = tested on: His2 (position 1, -----H-----); assay: not stated

Substance | pKa [1] | pKa [2] | pKa [3] | pKa [4] | pKa [5]
Anserine (beta-alanyl-1-methyl-L-histidine) (natural dipeptide of skeletal muscle of birds, fish and cattle (first identified in goose muscle); source of the titrated material not stated) | 9.49 | 2.64 |  |  | 
Carnosine (beta-alanyl-L-histidine) (natural dipeptide of vertebrate skeletal muscle (discovered in cattle, Bos taurus); source of the titrated material not stated) |  |  | 9.66 | 2.77 | 6.83
